Laboratory results taken from US20150344570A1 (published 2015).

Legend:
[1] = biological target: T1, FcγRIa extracellular domain with C-terminal His tag (human, UniProt P12314 16-292); assay: SPR (Biacore); He/Con_1a divided by He/Con_2b (FcγRIa against FcγRIIb)
T1 construct: extracellular domain; Expressed in FreeStyle293 cells; analyte in the SPR assay; also called FcgRI; 1a

[2] = biological target: T2, FcγRIIb extracellular domain with C-terminal His tag (human, UniProt P31994 43-217); assay: SPR (Biacore), relative binding, HeCon Ab = 100
T2 construct: extracellular domain; Expressed in FreeStyle293 cells; analyte in the SPR assay; also called FcgRIIb; 2b
T2 sequence (looked up): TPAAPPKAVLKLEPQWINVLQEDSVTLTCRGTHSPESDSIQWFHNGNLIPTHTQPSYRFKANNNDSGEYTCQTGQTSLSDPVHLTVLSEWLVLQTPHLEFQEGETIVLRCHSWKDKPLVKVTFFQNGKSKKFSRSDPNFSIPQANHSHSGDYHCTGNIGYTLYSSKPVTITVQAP

[3] = biological target: T1, FcγRIa extracellular domain with …; assay: SPR (Biacore), relative binding, HeCon Ab = 100

T1 sequence (P12314 16-292): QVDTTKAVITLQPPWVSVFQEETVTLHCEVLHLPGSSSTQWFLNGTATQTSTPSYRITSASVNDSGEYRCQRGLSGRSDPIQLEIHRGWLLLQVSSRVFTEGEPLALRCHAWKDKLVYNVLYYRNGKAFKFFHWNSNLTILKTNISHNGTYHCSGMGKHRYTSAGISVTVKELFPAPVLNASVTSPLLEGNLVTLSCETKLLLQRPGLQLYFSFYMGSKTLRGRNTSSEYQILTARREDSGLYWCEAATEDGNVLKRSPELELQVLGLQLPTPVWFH

Binder | He_1a/2b (Ia/IIb) [1] [ratio] | He/Con_2b [2] | He/Con_1a [3]
GpH7-A5/GpH7-B3 variant G236_03V/GpL16-k0 (He Ab) (antibody, human IgG1, kappa, He Ab: mutation in one H chain only) heavy 1: not shown heavy 2: not shown light: DIVMTQSPLSLPVTPGEPASISCQASESLVHSNRNTYLHWYLQKPGQSPQLLIYKVSNRFSGVPDRFSGSGSGTDFTLKISRVEAEDVGVYYCSQNTHVPPTFGQGTKVEIERTVAAPSVFIFPPSDEQLKSGTASVVCLLNNFYPREAKVQWKVDNALQSGNSQESVTEQDSKDSTYSLSSTLTLSKADYEKHKVYACEVTHQGLSSPVTKSFNRGEC | 2.55 | 35.3 % of HeCon Ab (=100) | 89.9 % of HeCon Ab (=100)
GpH7-A5/GpH7-B3 variant G236_04F/GpL16-k0 (He Ab) (antibody, human IgG1, kappa, He Ab: mutation in one H chain only) heavy 1: not shown heavy 2: not shown light: DIVMTQSPLSLPVTPGEPASISCQASESLVHSNRNTYLHWYLQKPGQSPQLLIYKVSNRFSGVPDRFSGSGSGTDFTLKISRVEAEDVGVYYCSQNTHVPPTFGQGTKVEIERTVAAPSVFIFPPSDEQLKSGTASVVCLLNNFYPREAKVQWKVDNALQSGNSQESVTEQDSKDSTYSLSSTLTLSKADYEKHKVYACEVTHQGLSSPVTKSFNRGEC | 2.45 | 39.3 % of HeCon Ab (=100) | 96.4 % of HeCon Ab (=100)
GpH7-A5/GpH7-B3 variant G236_05P/GpL16-k0 (He Ab) (antibody, human IgG1, kappa, He Ab: mutation in one H chain only) heavy 1: not shown heavy 2: not shown light: DIVMTQSPLSLPVTPGEPASISCQASESLVHSNRNTYLHWYLQKPGQSPQLLIYKVSNRFSGVPDRFSGSGSGTDFTLKISRVEAEDVGVYYCSQNTHVPPTFGQGTKVEIERTVAAPSVFIFPPSDEQLKSGTASVVCLLNNFYPREAKVQWKVDNALQSGNSQESVTEQDSKDSTYSLSSTLTLSKADYEKHKVYACEVTHQGLSSPVTKSFNRGEC | 4.05 | 19 % of HeCon Ab (=100) | 77 % of HeCon Ab (=100)
GpH7-A5/GpH7-B3 variant L234_01G/GpL16-k0 (He Ab) (antibody, human IgG1, kappa, He Ab: mutation in one H chain only) heavy 1: not shown heavy 2: not shown light: DIVMTQSPLSLPVTPGEPASISCQASESLVHSNRNTYLHWYLQKPGQSPQLLIYKVSNRFSGVPDRFSGSGSGTDFTLKISRVEAEDVGVYYCSQNTHVPPTFGQGTKVEIERTVAAPSVFIFPPSDEQLKSGTASVVCLLNNFYPREAKVQWKVDNALQSGNSQESVTEQDSKDSTYSLSSTLTLSKADYEKHKVYACEVTHQGLSSPVTKSFNRGEC | 1.9 | 50.7 % of HeCon Ab (=100) | 96.1 % of HeCon Ab (=100)
GpH7-A5/GpH7-B3 variant L234_02A/GpL16-k0 (He Ab) (antibody, human IgG1, kappa, He Ab: mutation in one H chain only) heavy 1: not shown heavy 2: not shown light: DIVMTQSPLSLPVTPGEPASISCQASESLVHSNRNTYLHWYLQKPGQSPQLLIYKVSNRFSGVPDRFSGSGSGTDFTLKISRVEAEDVGVYYCSQNTHVPPTFGQGTKVEIERTVAAPSVFIFPPSDEQLKSGTASVVCLLNNFYPREAKVQWKVDNALQSGNSQESVTEQDSKDSTYSLSSTLTLSKADYEKHKVYACEVTHQGLSSPVTKSFNRGEC | 1.5 | 64.9 % of HeCon Ab (=100) | 97.5 % of HeCon Ab (=100)
GpH7-A5/GpH7-B3 variant L234_03V/GpL16-k0 (He Ab) (antibody, human IgG1, kappa, He Ab: mutation in one H chain only) heavy 1: not shown heavy 2: not shown light: DIVMTQSPLSLPVTPGEPASISCQASESLVHSNRNTYLHWYLQKPGQSPQLLIYKVSNRFSGVPDRFSGSGSGTDFTLKISRVEAEDVGVYYCSQNTHVPPTFGQGTKVEIERTVAAPSVFIFPPSDEQLKSGTASVVCLLNNFYPREAKVQWKVDNALQSGNSQESVTEQDSKDSTYSLSSTLTLSKADYEKHKVYACEVTHQGLSSPVTKSFNRGEC | 1.43 | 73.1 % of HeCon Ab (=100) | 104 % of HeCon Ab (=100)
GpH7-A5/GpH7-B3 variant L234_05P/GpL16-k0 (He Ab) (antibody, human IgG1, kappa, He Ab: mutation in one H chain only) heavy 1: not shown heavy 2: not shown light: DIVMTQSPLSLPVTPGEPASISCQASESLVHSNRNTYLHWYLQKPGQSPQLLIYKVSNRFSGVPDRFSGSGSGTDFTLKISRVEAEDVGVYYCSQNTHVPPTFGQGTKVEIERTVAAPSVFIFPPSDEQLKSGTASVVCLLNNFYPREAKVQWKVDNALQSGNSQESVTEQDSKDSTYSLSSTLTLSKADYEKHKVYACEVTHQGLSSPVTKSFNRGEC | 1.37 | 72.9 % of HeCon Ab (=100) | 99.9 % of HeCon Ab (=100)
GpH7-A5/GpH7-B3 variant L234_06M/GpL16-k0 (He Ab) (antibody, human IgG1, kappa, He Ab: mutation in one H chain only) heavy 1: not shown heavy 2: not shown light: DIVMTQSPLSLPVTPGEPASISCQASESLVHSNRNTYLHWYLQKPGQSPQLLIYKVSNRFSGVPDRFSGSGSGTDFTLKISRVEAEDVGVYYCSQNTHVPPTFGQGTKVEIERTVAAPSVFIFPPSDEQLKSGTASVVCLLNNFYPREAKVQWKVDNALQSGNSQESVTEQDSKDSTYSLSSTLTLSKADYEKHKVYACEVTHQGLSSPVTKSFNRGEC | 1.32 | 78.5 % of HeCon Ab (=100) | 104 % of HeCon Ab (=100)
GpH7-A5/GpH7-B3 variant L234_07I/GpL16-k0 (He Ab) (antibody, human IgG1, kappa, He Ab: mutation in one H chain only) heavy 1: not shown heavy 2: not shown light: DIVMTQSPLSLPVTPGEPASISCQASESLVHSNRNTYLHWYLQKPGQSPQLLIYKVSNRFSGVPDRFSGSGSGTDFTLKISRVEAEDVGVYYCSQNTHVPPTFGQGTKVEIERTVAAPSVFIFPPSDEQLKSGTASVVCLLNNFYPREAKVQWKVDNALQSGNSQESVTEQDSKDSTYSLSSTLTLSKADYEKHKVYACEVTHQGLSSPVTKSFNRGEC | 1.27 | 80.9 % of HeCon Ab (=100) | 103 % of HeCon Ab (=100)
GpH7-A5/GpH7-B3 variant L234_11K/GpL16-k0 (He Ab) (antibody, human IgG1, kappa, He Ab: mutation in one H chain only) heavy 1: not shown heavy 2: not shown light: DIVMTQSPLSLPVTPGEPASISCQASESLVHSNRNTYLHWYLQKPGQSPQLLIYKVSNRFSGVPDRFSGSGSGTDFTLKISRVEAEDVGVYYCSQNTHVPPTFGQGTKVEIERTVAAPSVFIFPPSDEQLKSGTASVVCLLNNFYPREAKVQWKVDNALQSGNSQESVTEQDSKDSTYSLSSTLTLSKADYEKHKVYACEVTHQGLSSPVTKSFNRGEC | 5.67 | 16.2 % of HeCon Ab (=100) | 91.8 % of HeCon Ab (=100)
GpH7-A5/GpH7-B3 variant L234_12R/GpL16-k0 (He Ab) (antibody, human IgG1, kappa, He Ab: mutation in one H chain only) heavy 1: not shown heavy 2: not shown light: DIVMTQSPLSLPVTPGEPASISCQASESLVHSNRNTYLHWYLQKPGQSPQLLIYKVSNRFSGVPDRFSGSGSGTDFTLKISRVEAEDVGVYYCSQNTHVPPTFGQGTKVEIERTVAAPSVFIFPPSDEQLKSGTASVVCLLNNFYPREAKVQWKVDNALQSGNSQESVTEQDSKDSTYSLSSTLTLSKADYEKHKVYACEVTHQGLSSPVTKSFNRGEC | 4.86 | 18.9 % of HeCon Ab (=100) | 91.8 % of HeCon Ab (=100)
GpH7-A5/GpH7-B3 variant L234_13S/GpL16-k0 (He Ab) (antibody, human IgG1, kappa, He Ab: mutation in one H chain only) heavy 1: not shown heavy 2: not shown light: DIVMTQSPLSLPVTPGEPASISCQASESLVHSNRNTYLHWYLQKPGQSPQLLIYKVSNRFSGVPDRFSGSGSGTDFTLKISRVEAEDVGVYYCSQNTHVPPTFGQGTKVEIERTVAAPSVFIFPPSDEQLKSGTASVVCLLNNFYPREAKVQWKVDNALQSGNSQESVTEQDSKDSTYSLSSTLTLSKADYEKHKVYACEVTHQGLSSPVTKSFNRGEC | 1.63 | 59.3 % of HeCon Ab (=100) | 96.9 % of HeCon Ab (=100)
GpH7-A5/GpH7-B3 variant L234_14T/GpL16-k0 (He Ab) (antibody, human IgG1, kappa, He Ab: mutation in one H chain only) heavy 1: not shown heavy 2: not shown light: DIVMTQSPLSLPVTPGEPASISCQASESLVHSNRNTYLHWYLQKPGQSPQLLIYKVSNRFSGVPDRFSGSGSGTDFTLKISRVEAEDVGVYYCSQNTHVPPTFGQGTKVEIERTVAAPSVFIFPPSDEQLKSGTASVVCLLNNFYPREAKVQWKVDNALQSGNSQESVTEQDSKDSTYSLSSTLTLSKADYEKHKVYACEVTHQGLSSPVTKSFNRGEC | 1.58 | 62.5 % of HeCon Ab (=100) | 98.6 % of HeCon Ab (=100)
GpH7-A5/GpH7-B3 variant L234_16H/GpL16-k0 (He Ab) (antibody, human IgG1, kappa, He Ab: mutation in one H chain only) heavy 1: not shown heavy 2: not shown light: DIVMTQSPLSLPVTPGEPASISCQASESLVHSNRNTYLHWYLQKPGQSPQLLIYKVSNRFSGVPDRFSGSGSGTDFTLKISRVEAEDVGVYYCSQNTHVPPTFGQGTKVEIERTVAAPSVFIFPPSDEQLKSGTASVVCLLNNFYPREAKVQWKVDNALQSGNSQESVTEQDSKDSTYSLSSTLTLSKADYEKHKVYACEVTHQGLSSPVTKSFNRGEC | 1.58 | 59.4 % of HeCon Ab (=100) | 94 % of HeCon Ab (=100)
